Laboratory results published in US20220153859A1 (ANOKION, published 2022).

Key:
[1] = target: T1, Cynomolgus glycophorin A on cynomolgus erythrocytes (cynomolgus monkey); experiment: FACS (flow cytometry) on cynomolgus erythrocytes (cRBCs)
T1 construct: whole, on cells; also called cyno GPA; cyno erythrocytes
Outline: (§1)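 After selection through next-generation-sequencing enrichment and phage ELISA screens, Fabs were expressed solubly in HEK cells. The highest-ranked ones were purified using CH1 resin. Their EC50 for binding human or cynomolgus erythrocytes came from flow cytometry.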

[2] = target: T2, Human glycophorin A on human erythrocytes (human, UniProt P02724 20-150); experiment: FACS (flow cytometry) on human erythrocytes (hRBCs)
T2 construct: whole, on cells; Target of the flow cytometry assays on human erythrocytes; also called human GPA; hGPA
T2 sequence (looked up): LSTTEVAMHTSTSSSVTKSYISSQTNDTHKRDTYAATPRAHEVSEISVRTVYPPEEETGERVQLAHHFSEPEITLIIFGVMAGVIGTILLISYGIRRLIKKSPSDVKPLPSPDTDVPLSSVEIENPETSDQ
Outline: as §1

[3] = target: T3, Human glycophorin A extract (hGPA extract) (human, UniProt P02724 20-150); experiment: Octet BLI, hGPA extract, apparent KD; biphasic off-rate to fit data
T3 construct: also called human GPA extracted from red blood cells (extract)
T3 sequence (looked up): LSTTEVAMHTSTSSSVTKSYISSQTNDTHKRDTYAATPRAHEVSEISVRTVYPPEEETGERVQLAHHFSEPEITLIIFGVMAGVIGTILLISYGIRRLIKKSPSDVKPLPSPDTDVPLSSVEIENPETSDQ

[4] = target: T3, Human glycophorin A extract (hGPA …); experiment: Biacore SPR, hGPA extract, apparent; biphasic off-rate to fit data
[5] = target: T2, Human glycophorin A on human …; experiment: flow cytometry (FACS) on human erythrocytes, soluble Fab
[6] = target: T3, Human glycophorin A extract (hGPA …); experiment: Biacore SPR, hGPA extract, apparent KD; biphasic off-rate to fit data
[7] = target: T3, Human glycophorin A extract (hGPA …); experiment: Octet BLI, hGPA extract, apparent; biphasic off-rate to fit data
[8] = target: T3, Human glycophorin A extract (hGPA …); experiment: Octet BLI, hGPA extract, apparent KD
[9] = target: T3, Human glycophorin A extract (hGPA …); experiment: Octet BLI, hGPA extract, apparent
[10] = target: T3, Human glycophorin A extract (hGPA …); experiment: Biacore SPR, hGPA extract, apparent KD
[11] = target: T3, Human glycophorin A extract (hGPA …); experiment: Biacore SPR, hGPA extract, apparent

B1: CDRL2_18 (Fab, V domains shown)
VH: QVQLVQSGAEVKKPGASVKVSCTASGFNIKDTYMLWVRQAPGQGLEWMGRIDPANANSRYDPKFQGRVTITADTSTNTAYMELSSLRSEDTAVYYCVDGYMFAYWGQGTLVTVSS
VL: DVVMTQTPLSLSVTPGQPASISCKSSQSLLYSNGKTYLHWLLQKPGQSPQRLIYLLNRLHSGVPDRFSGSGSGTDFTLKISRVEAEDVGVYYCVQGTHFPLTFGQGTKLEIKR
notes: copies: 1 + 1
EC50 [1]: 8.3 nM | EC50 [2]: 2.5 nM

B2: CDRH1_14 (Fab, V domains shown)
VH: QVQLVQSGAEVKKPGASVKVSCTASGFNIRNIYLLWVRQAPGQGLEWMGRIDPANANSRYDPKFQGRVTITADTSTNTAYMELSSLRSEDTAVYYCVDGYMFAYWGQGTLVTVSS
VL: DVVMTQTPLSLSVTPGQPASISCKSSQSLLYSNGKTYLHWLLQKPGQSPQRLIYLVSKLDSGVPDRFSGSGSGTDFTLKISRVEAEDVGVYYCVQGTHFPLTFGQGTKLEIKR
notes: column Notes: 'Duplicate ELISA hit'; copies: 1 + 1
EC50 [1]: 10.8 nM | EC50 [2]: 4.2 nM

B3: CDRH1_15 (Fab, V domains shown)
VH: QVQLVQSGAEVKKPGASVKVSCTASGFNIRKTYILWVRQAPGQGLEWMGRIDPANANSRYDPKFQGRVTITADTSTNTAYMELSSLRSEDTAVYYCVDGYMFAYWGQGTLVTVSS
VL: DVVMTQTPLSLSVTPGQPASISCKSSQSLLYSNGKTYLHWLLQKPGQSPQRLIYLVSKLDSGVPDRFSGSGSGTDFTLKISRVEAEDVGVYYCVQGTHFPLTFGQGTKLEIKR
notes: copies: 1 + 1
EC50 [1]: 10.6 nM | EC50 [2]: 3.1 nM

B4: CDRL2_37 (Fab, V domains shown)
VH: QVQLVQSGAEVKKPGASVKVSCTASGFNIKDTYMLWVRQAPGQGLEWMGRIDPANANSRYDPKFQGRVTITADTSTNTAYMELSSLRSEDTAVYYCVDGYMFAYWGQGTLVTVSS
VL: DVVMTQTPLSLSVTPGQPASISCKSSQSLLYSNGKTYLHWLLQKPGQSPQRLIYLSNRLHSGVPDRFSGSGSGTDFTLKISRVEAEDVGVYYCVQGTHFPLTFGQGTKLEIKR
notes: copies: 1 + 1
EC50 [1]: 10.1 nM | EC50 [2]: 2.8 nM

B5: CDRL2_33 (Fab, V domains shown)
VH: QVQLVQSGAEVKKPGASVKVSCTASGFNIKDTYMLWVRQAPGQGLEWMGRIDPANANSRYDPKFQGRVTITADTSTNTAYMELSSLRSEDTAVYYCVDGYMFAYWGQGTLVTVSS
VL: DVVMTQTPLSLSVTPGQPASISCKSSQSLLYSNGKTYLHWLLQKPGQSPQRLIYLNSRLHSGVPDRFSGSGSGTDFTLKISRVEAEDVGVYYCVQGTHFPLTFGQGTKLEIKR
notes: copies: 1 + 1
EC50 [1]: 8.3 nM | EC50 [2]: 4.4 nM

B6: CDRH1_25 (Fab, V domains shown)
VH: QVQLVQSGAEVKKPGASVKVSCTASGFNIKHVYILWVRQAPGQGLEWMGRIDPANANSRYDPKFQGRVTITADTSTNTAYMELSSLRSEDTAVYYCVDGYMFAYWGQGTLVTVSS
VL: DVVMTQTPLSLSVTPGQPASISCKSSQSLLYSNGKTYLHWLLQKPGQSPQRLIYLVSKLDSGVPDRFSGSGSGTDFTLKISRVEAEDVGVYYCVQGTHFPLTFGQGTKLEIKR
notes: copies: 1 + 1
EC50 [1]: 10.2 nM | EC50 [2]: 3.1 nM

B7: CDRL2_49 (Fab, V domains shown)
VH: QVQLVQSGAEVKKPGASVKVSCTASGFNIKDTYMLWVRQAPGQGLEWMGRIDPANANSRYDPKFQGRVTITADTSTNTAYMELSSLRSEDTAVYYCVDGYMFAYWGQGTLVTVSS
VL: DVVMTQTPLSLSVTPGQPASISCKSSQSLLYSNGKTYLHWLLQKPGQSPQRLIYLLNRMSSGVPDRFSGSGSGTDFTLKISRVEAEDVGVYYCVQGTHFPLTFGQGTKLEIKR
notes: column Notes: 'ELISA Hit'; copies: 1 + 1
EC50 [1]: 13 nM | EC50 [2]: 4.4 nM

B8: CDRH1_24 (Fab, V domains shown)
VH: QVQLVQSGAEVKKPGASVKVSCTASGFNIKTVYILWVRQAPGQGLEWMGRIDPANANSRYDPKFQGRVTITADTSTNTAYMELSSLRSEDTAVYYCVDGYMFAYWGQGTLVTVSS
VL: DVVMTQTPLSLSVTPGQPASISCKSSQSLLYSNGKTYLHWLLQKPGQSPQRLIYLVSKLDSGVPDRFSGSGSGTDFTLKISRVEAEDVGVYYCVQGTHFPLTFGQGTKLEIKR
notes: copies: 1 + 1
EC50 [1]: 10.6 nM | EC50 [2]: 3.1 nM

B9: CDRL2_32 (Fab, V domains shown)
VH: QVQLVQSGAEVKKPGASVKVSCTASGFNIKDTYMLWVRQAPGQGLEWMGRIDPANANSRYDPKFQGRVTITADTSTNTAYMELSSLRSEDTAVYYCVDGYMFAYWGQGTLVTVSS
VL: DVVMTQTPLSLSVTPGQPASISCKSSQSLLYSNGKTYLHWLLQKPGQSPQRLIYLLNRLSSGVPDRFSGSGSGTDFTLKISRVEAEDVGVYYCVQGTHFPLTFGQGTKLEIKR
notes: copies: 1 + 1
EC50 [1]: 11.1 nM | EC50 [2]: 4.2 nM

B10: CDRH1_1 (Fab, V domains shown)
VH: QVQLVQSGAEVKKPGASVKVSCTASGFNIRATYILWVRQAPGQGLEWMGRIDPANANSRYDPKFQGRVTITADTSTNTAYMELSSLRSEDTAVYYCVDGYMFAYWGQGTLVTVSS
VL: DVVMTQTPLSLSVTPGQPASISCKSSQSLLYSNGKTYLHWLLQKPGQSPQRLIYLVSKLDSGVPDRFSGSGSGTDFTLKISRVEAEDVGVYYCVQGTHFPLTFGQGTKLEIKR
notes: copies: 1 + 1
EC50 [1]: 11.6 nM | EC50 [2]: 4.3 nM

B11: Humanized & affinity matured 10F7-M10 Fab clone L1+2-5 (Fab)
heavy: EVQLLESGGGLVQPGKSLRLSCKASGYTFNSYFMHWVRQAPGKGLEWVGMIRPNGGTTDYNEKFKNRFTLSVDKSKNTAYLQMNSLRAEDTAVYYCARWEGSYYALDYWGQGTASTKGPSVFPLAPSSKSTSGGTAALGCLVKDYFPEPVTVSWNSGALTSGVHTFPAVLQSSGLYSLSSVVTVPSSSLGTQTYICNVNHKPSNTKVDKKVEPKSC
light: EITLTQSPATLSLSPGERATLSCRASSNVYNMYWYQQKPGQAPRLWIHRTSNLASGIPDRFSGSGSGTDYTLTISRLEPEDFAVYYCQQFTSSPYTFGQGTKVEVKRTVAAPSVFIFPPSDEQLKSGTASVVCLLNNFYPREAKVQWKVDNALQSGNSQESVTEQDSKDSTYSLSSTLTLSKADYEKHKVYACEVTHQGLSSPVTKSFNRGEC
notes: Soluble Fab from HEK cells; all domains other than VL are the same as wild-type 10F7-M10; also called YN-HR-N
Kd [3]: 10 nM | koff [4]: 0.00808 s⁻¹ | kon [4]: 795000 M⁻¹ s⁻¹ | EC50 [5]: 8.8 nM | Kd [6]: 10.2 nM | koff [7]: 0.0081 s⁻¹ | kon [7]: 790000 M⁻¹ s⁻¹

B12: Humanized & affinity matured 10F7-M10 Fab clone L1+2-35 (Fab)
heavy: EVQLLESGGGLVQPGKSLRLSCKASGYTFNSYFMHWVRQAPGKGLEWVGMIRPNGGTTDYNEKFKNRFTLSVDKSKNTAYLQMNSLRAEDTAVYYCARWEGSYYALDYWGQGTASTKGPSVFPLAPSSKSTSGGTAALGCLVKDYFPEPVTVSWNSGALTSGVHTFPAVLQSSGLYSLSSVVTVPSSSLGTQTYICNVNHKPSNTKVDKKVEPKSC
light: EITLTQSPATLSLSPGERATLSCRASSNVYWMYWYQQKPGQAPRLWIHHTSELASGIPDRFSGSGSGTDYTLTISRLEPEDFAVYYCQQFTSSPYTFGQGTKVEVKRTVAAPSVFIFPPSDEQLKSGTASVVCLLNNFYPREAKVQWKVDNALQSGNSQESVTEQDSKDSTYSLSSTLTLSKADYEKHKVYACEVTHQGLSSPVTKSFNRGEC
notes: Soluble Fab from HEK cells; all domains other than VL are the same as wild-type 10F7-M10; also called YW-HH-E
Kd [8]: 17 nM | EC50 [5]: 4.6 nM | koff [9]: 0.0014 s⁻¹ | kon [9]: 81000 M⁻¹ s⁻¹ | Kd [10]: 16.7 nM | koff [11]: 0.00136 s⁻¹ | kon [11]: 81300 M⁻¹ s⁻¹

B13: Humanized & affinity matured 10F7-M10 Fab clone L1+2-28 (Fab)
heavy: EVQLLESGGGLVQPGKSLRLSCKASGYTFNSYFMHWVRQAPGKGLEWVGMIRPNGGTTDYNEKFKNRFTLSVDKSKNTAYLQMNSLRAEDTAVYYCARWEGSYYALDYWGQGTASTKGPSVFPLAPSSKSTSGGTAALGCLVKDYFPEPVTVSWNSGALTSGVHTFPAVLQSSGLYSLSSVVTVPSSSLGTQTYICNVNHKPSNTKVDKKVEPKSC
light: EITLTQSPATLSLSPGERATLSCRASSNVYWMYWYQQKPGQAPRLWIHHTSDLASGIPDRFSGSGSGTDYTLTISRLEPEDFAVYYCQQFTSSPYTFGQGTKVEVKRTVAAPSVFIFPPSDEQLKSGTASVVCLLNNFYPREAKVQWKVDNALQSGNSQESVTEQDSKDSTYSLSSTLTLSKADYEKHKVYACEVTHQGLSSPVTKSFNRGEC
notes: Soluble Fab from HEK cells; all domains other than VL are the same as wild-type 10F7-M10; also called YW-HH-D
Kd [8]: 3.5 nM | EC50 [5]: 3.7 nM | koff [9]: 0.0021 s⁻¹ | kon [9]: 610000 M⁻¹ s⁻¹ | Kd [10]: 3.49 nM | koff [11]: 0.00214 s⁻¹ | kon [11]: 614000 M⁻¹ s⁻¹

B14: Humanized & affinity matured 10F7-M10 Fab clone L1+2-39 (Fab)
heavy: EVQLLESGGGLVQPGKSLRLSCKASGYTFNSYFMHWVRQAPGKGLEWVGMIRPNGGTTDYNEKFKNRFTLSVDKSKNTAYLQMNSLRAEDTAVYYCARWEGSYYALDYWGQGTASTKGPSVFPLAPSSKSTSGGTAALGCLVKDYFPEPVTVSWNSGALTSGVHTFPAVLQSSGLYSLSSVVTVPSSSLGTQTYICNVNHKPSNTKVDKKVEPKSC
light: EITLTQSPATLSLSPGERATLSCRASSNVFFMYWYQQKPGQAPRLWIHHTSVLASGIPDRFSGSGSGTDYTLTISRLEPEDFAVYYCQQFTSSPYTFGQGTKVEVKRTVAAPSVFIFPPSDEQLKSGTASVVCLLNNFYPREAKVQWKVDNALQSGNSQESVTEQDSKDSTYSLSSTLTLSKADYEKHKVYACEVTHQGLSSPVTKSFNRGEC
notes: Soluble Fab from HEK cells; all domains other than VL are the same as wild-type 10F7-M10; also called FF-HH-V
Kd [8]: 4.8 nM | EC50 [5]: 2.7 nM | koff [9]: 0.0012 s⁻¹ | kon [9]: 250000 M⁻¹ s⁻¹ | Kd [10]: 4.82 nM | koff [11]: 0.00121 s⁻¹ | kon [11]: 250000 M⁻¹ s⁻¹
